Like-named read-outs stand apart in the source and are kept apart here.
What was measured:
[1] = system: bek; assay: Saturation (equilibrium) binding of [125I]FGF to bek-overexpressing cells, Scatchard analysis; design: species or system human; details: for binding of [125I]aFGF and [125I]bFGF at saturation to bek in presence of unlabelled ligand: 100 fold molar excess of unlabelled ligand
Protocol: (§1) Bovine derived aFGF, purified as previously described (Burgess, et al., J. Biol. Chem., 260: 11389-11392 (1985)), human recombinant bFGF (a kind gift of Dr. Moscatelli) and human recombinant kFGF (a kind gift of Dr. Claudio Basilico) were radioiodinated using the protocol for Enzymobeads (BioRad). The specific activity of the radiolabelled ligand was determined by radioisotope dilution using the respective unlabelled competitsr. The concentrations of the unlabelled ligands were determined by amino acid analysis (Jaye, et al., 1987 supra). The specific activity of the different preparations of [^125 I]aFGF varied between 130,000-760,000 cpm/ng and the specific activity for [^125 I]bFGF between 50,000-500,000 cpm/ng. The specific activity of [^125 I]kFGF varied from 50,000-200,000 cpm/ng. The binding assay was performed as follows: Fibronectin-coated 24 well dishes containing 1×10^5 cells/well were placed on ice, and the wells were rinsed twice with cold binding buffer (DMEM, 1 mg/ml BSA, 5 U/ml heparin, 50 mM Hepes, pH 7.4). Dishes were incubated on ice with 1 ml of ice cold binding buffer for 20 minutes, followed by 2 hours at 4° C. with serial dilutions of the [^125 I]FGF in cold binding buffer without heparin. Nonspecific binding was obtained using the same serial dilutions but in the presence of 100 fold molar excess of non-radioactive aFGF. After incubation, the cells were placed on-ice and rinsed twice with ice cold binding buffer minus heparin and then solubilized in 0.3N NaOH 37° C., 15 minutes. When [^125 I]bFGF was used the cells were placed on ice after incubation, washed three times with PBS, twice with 1 ml 2M NaCl in 20 mM Hepes, pH 7.5 and twice with 1 ml 2M NaCl in 20 mM sodium acetate, pH 4.0. The radioactivity released by the acid 2M NaCl wash represents specific binding to high affinity sites (Moscatelli, J. Cell. Physiol., 131: 123-130 (1987)). Acidic and basic FGF were radioiodinated and purified on heparin-Sepharose as described above. The dissociation constants of bek and fiq for aFGF and bFGF were established by saturation binding analysis of the overexpressing cell lines with the iodinated ligands. Binding of both aFGF and bFGF to bek and flg was specific and saturable (FIG. 6A, inserts). […] Also kFGF binds to bek with similar affinity as does bFGF but binds to flg with 4-foldless avidity than does bFGF. The data from additional experiments yield apparent Kds of aFGF for flg in the range of 20-80 pM and for bek in the range of 40-100 pM. […] The range of values probably arises from determinations of the specific activity and biological integrity of different preparations of the iodinated ligands. […] These conclusions were supported by competition (isotope dilution) experiments in which increasing amounts of nonradioactive aFGF or bFGF competed for binding with [^125 I]aFGF and [^125 I]bFGF to flg- and bek-overexpressing cells.

[2] = system: flg; assay: Saturation (equilibrium) binding of [125I]FGF to flg-overexpressing cells, Scatchard analysis; design: species or system human; details: for binding of [125I]aFGF and [125I]bFGF at saturation to flg in presence of unlabelled ligand: 100 fold molar excess of unlabelled ligand
Protocol: as §1

[3] = data from additional experiments, read-out: apparent Kd for bek, range
[4] = typical experiment, Scatchard analysis, bek-overexpressing NIH 3T3 cells (bek8; bek13 for kFGF), 4° C., read-out: affinity (dissociation constant) for bek
[5] = within any single experiment, compared to aFGF
[6] = data from additional experiments, read-out: apparent Kd for flg, range
[7] = typical experiment, Scatchard analysis, flg-overexpressing NIH 3T3 cells (flg26), 4° C., read-out: affinity (dissociation constant) for flg

Molecule: bFGF: human recombinant basic fibroblast growth factor, radioiodinated for binding
- binding of [125I]aFGF and [125I]bFGF at saturation to bek in presence of unlabelled ligand [1]: completely eliminated
- Kd [1, 3]: 0.08 to 0.15 nM
- Kd [1, 4]: 0.082 nM
- fold lower affinity for bek compared to aFGF [1, 5]: approximately 2 fold
- binding of [125I]aFGF and [125I]bFGF at saturation to flg in presence of unlabelled ligand [2]: completely eliminated
- Kd [2, 6]: 0.05 to 0.15 nM
- Kd [2, 7]: 0.047 nM
- fold lower affinity for flg compared to aFGF [2, 5]: approximately 2 fold

B1: aFGF: Bovine derived acidic fibroblast growth factor, purified, radioiodinated for binding (protein, UniProt P03968 16-155, looked up)
Fibroblast growth factor 1: FNLPLGNYKKPKLLYCSNGGYFLRILPDGTVDGTKDRSDQHIQLQLCAESIGEVYIKSTETGQFLAMDTDGLLYGSQTPNEECLFLERLEENHYNTYISKKHAEKHWFVGLKKNGRSKLGPRTHFGQKAILFLPLPVSSD
modifications: radioiodinated
- binding of [125I]aFGF and [125I]bFGF at saturation to bek in presence of unlabelled ligand [1]: completely eliminated
- Kd [1, 3]: 0.04 to 0.1 nM
- Kd [1, 4]: 0.047 nM
- binding of [125I]aFGF and [125I]bFGF at saturation to flg in presence of unlabelled ligand [2]: completely eliminated
- Kd [2, 6]: 0.02 to 0.08 nM
- Kd [2, 7]: 0.024 nM

B2: kFGF: human recombinant kFGF, member of the FGF family, radioiodinated for binding (protein, UniProt P08620 31-206, looked up)
Fibroblast growth factor 4: APTAPNGTLEAELERRWESLVALSLARLPVAAQPKEAAVQSGAGDYLLGIKRLRRLYCNVGIGFHLQALPDGRIGGAHADTRDSLLELSPVERGVVSIFGVASRFFVAMSSKGKLYGSPFFTDECTFKEILLPNNYNAYESYKYPGMFIALSKNGKTKKGNRVSPTMKVTHFLPRL
modifications: radioiodinated
- Kd [1, 4]: 0.08 nM
- fold less avidity for flg than bFGF ([2]; compared to bFGF): 4 fold
- Kd [2, 7]: 0.32 nM
